{"source": "paper PMC6471826", "about": "“Cold-Adapted Glutathione S-Transferases from Antarctic Psychrophilic Bacterium Halomonas sp. ANT108: Heterologous Expression, Characterization, and Oxidative Resistance” (Marine Drugs, 2019)", "test_system": "O=[N+]([O-])c1ccc(Cl)c([N+](=O)[O-])c1", "assay": "purified protein", "settings": "co-substrate GSH, CDNB 0.5-4.5 mM, 25 °C"}
{"substance": "rHsGST (Halomonas sp.)", "values": [{"measurement": "Km", "value": 2860, "unit": "µM"}, {"measurement": "kcat/Km", "value": 18800, "unit": "M⁻¹ s⁻¹"}]}
